Measurements reported in patent US20190010498, “CHEMICALLY MODIFIED AMPA RECEPTOR RNA APTAMERS” (The Research Foundation for the State University of New York, published 2019).

What was measured:
[1] = molecular target: T1, GluA2Qflip AMPA receptor (homomeric, Q/R site unedited) (UniProt P19491-2 P19491-2:22-883); experiment: competition; homologous competition with 32P-FN1040, nylon filter; 150 mM NaCl, 3 mM KCl, 1 mM CaCl2, 1 mM MgCl2, 10 mM HEPES pH 7.4; 10 ng/ul tRNA; NBQX displaces about 50%, glutamate about 30%, BDZ-f/BDZ-g none; conditions: tags: transiently expressed in HEK-293S cells; chain copies: 4 inferred
Source text: Binding Affinity of FN1040 on GluA2Qflip. The binding affinity, Kd, of FN1040 for GluA2Qflip was estimated from a homologous competitive binding experiment. In this experiment, intact GluA2Qflip receptors embedded in HEK-293 cell membrane fragments were mixed with ³²P-labeled or hot FN1040 (see RNA 5′-end Labeled with ³²P.). The unlabeled FN1040 (or cold FN1040) was used to compete with the hot FN1040 for the binding to GluA2Qflip receptors. As shown, the normalized radioactivity as a function of the cold FN1040 was determined (FIG. 1c).
Homologous Competitive Binding Assay. FN1040 was transcribed in a transcription reaction mixture with additional 0.4 μM of ³²P-α-ATP (800 Ci/mmol). The ³²P-FN1040 product was separated by 8M urea PAGE and recovered by electroelution method (Elutrap, GE Health). Before mixing with the cell membrane fragments, the RNA was run through a refolding procedure, i.e. 95° C./3′→50° C./30′→room temperature/30′. The binding mixture contained 0.6 nM of GluA2Qflip receptor, 10 ng/μl of yeast tRNA, 10 nM of ³²P-FN1040, and 0 to 1.5 μM of unlabeled FN1040 in the extracelluar buffer. […] The radioactivity remaining on the filter was counted in a scintillation counter (Beckman LS6500). […] Assuming a one-site binding model, we determined the Kd of the aptamer bound to the receptor by fitting the binding data to eq 2⁵² below, […]

[2] = molecular target: T1, GluA2Qflip AMPA receptor (homomeric, …); experiment: inhibition; whole-cell current recording, closed-channel (0.1 mM glutamate), -60 mV, 22 C; conditions: tags: transiently expressed in HEK-293S cells; chain copies: 4 inferred
Source text: Functional Characterization of FN1040 by Whole-Cell Recording. Using whole-cell current recording, we first tested each of the six putative RNA aptamers against GluA2Qflip, the SELEX target. […] To verify this, we tested the aptamer at increasing concentrations against the GluA2Qflip channel expressed in HEK-293 cells (FIG. 1b). On the closed-channel conformation, we observed a linear relationship between the A/A(I) value and the aptamer concentration (FIG. 1b). Using eq 1 (see Data Analysis of Whole-Cell Current Amplitude), we estimated that the inhibition constant, K, for the closed-channel form of GluA2Qflip was 2.3±0.7 μM (FIG. 1b).
Whole-Cell Current Recording. […] For recording of the NMDA channels, the intracellular solution contained (in mM) 140 CsCl, 1 MgCl₂, 0.1 EGTA, and 10 HEPES (pH 7.2 adjusted by Mg(OH)₂) and the extracellular solution contained 2 μM of glycine and (in mM) 135 NaCl, 5.4 KCl, 1.8 CaCl₂, 10 glucose and 5 HEPES (pH 7.2 adjusted by NaOH).¹⁰ The glutamate-induced whole-cell current was recorded using an Axopatch-200B amplifier at a cutoff frequency of 2-20 kHz by a built-in, eight-pole Bessel filter and digitized at 5-50 kHz sampling frequency using a Digidata 1322A from Axon Instruments (Molecular Devices, Sunnyvale, Calif.). […]

T1 sequence (P19491 other isoform, or with tags, fused parts or gaps): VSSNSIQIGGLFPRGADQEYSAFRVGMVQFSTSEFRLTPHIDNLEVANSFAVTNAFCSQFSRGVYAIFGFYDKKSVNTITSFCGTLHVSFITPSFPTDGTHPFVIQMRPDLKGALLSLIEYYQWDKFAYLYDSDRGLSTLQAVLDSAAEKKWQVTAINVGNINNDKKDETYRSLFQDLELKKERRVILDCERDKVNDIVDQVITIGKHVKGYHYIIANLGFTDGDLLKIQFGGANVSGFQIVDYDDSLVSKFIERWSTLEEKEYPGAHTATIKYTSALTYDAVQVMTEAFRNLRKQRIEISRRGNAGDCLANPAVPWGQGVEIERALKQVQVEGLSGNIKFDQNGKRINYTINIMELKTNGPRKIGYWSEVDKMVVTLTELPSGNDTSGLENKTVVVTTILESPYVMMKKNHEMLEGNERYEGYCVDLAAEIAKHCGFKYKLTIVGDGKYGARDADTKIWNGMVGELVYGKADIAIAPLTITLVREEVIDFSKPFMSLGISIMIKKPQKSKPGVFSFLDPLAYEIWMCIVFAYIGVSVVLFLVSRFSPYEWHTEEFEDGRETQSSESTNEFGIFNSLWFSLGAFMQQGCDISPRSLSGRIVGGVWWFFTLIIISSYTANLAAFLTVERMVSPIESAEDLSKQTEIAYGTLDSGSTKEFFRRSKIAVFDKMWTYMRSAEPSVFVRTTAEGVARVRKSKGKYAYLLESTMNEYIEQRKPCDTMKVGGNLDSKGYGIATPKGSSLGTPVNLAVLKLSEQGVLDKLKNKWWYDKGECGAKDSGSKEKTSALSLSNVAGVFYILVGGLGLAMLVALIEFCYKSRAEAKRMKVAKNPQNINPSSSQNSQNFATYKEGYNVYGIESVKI

B1: FN1040 (ssRNA)
RNA: GGGAGAAUUCAACUGCCAUCUAGGCACGCUACUGUGAGUGUUGUGAUGGCGGCUGAACGAUCGAAACGGAACUGUAGUACUACAAGCUUCUGGACUCGGU
modifications: 2'-F at all A, C and U; G is 2'-OH
Kd [1]: 20 nM
Ki [2]: 2300 nM
